This data set can be described thus: amyloid nucleation score (Sup35N fusion, yeast selection) (log enrichment); library NNK2; higher = more nucleation; inactive = no reads after selection. The method, boiled down:
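The nucleation score, computed with DiMSum, is the log enrichment of output over input reads, centred on the mode score of non-aggregating sequences. Sequences with under 100 input reads were dropped. Reads were generated by Illumina sequencing of plasmid inserts from psi-negative yeast with Sup35N fused to peptides of 20 random codons, induced with 100 μM copper sulfate for 24 hours and grown 7 days at 30°C on medium lacking adenine and uracil.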

The source of these data is the supplement of paper PMC12042874.

± gives the uncertainty stated by the source.

ANLSRCVELMSRPQSVD had an amyloid nucleation score of 1 ± 0.15. For the substance FSGLSCY, the amyloid nucleation score entry is “inactive”. The result for SIRLYSCSMVLTSSSVNCYQ reads 1.86 ± 0.17; that for SAMQFRSFF, 0.94 ± 0.34; that for SRVYRCGWLGS, 0.274 ± 0.65. With IMYLLGKGLWTVAVYPSRYP, the amyloid nucleation score is -0.806 ± 0.61. The value for VYAYRTEFQRW was 0.886 ± 0.47; that for MIKYYVSHNPRWHSRWCNSQ was 0.762 ± 0.43; that for TTQDATLIVNSCNTFTLQVY was -0.389 ± 0.29. Consider LNKMECPCLFCVCVAFVIEW, for which the amyloid nucleation score is 5.38 ± 0.067. The result for YVKVRWCGTSPCNEFLRSSY reads 0.429 ± 0.66; that for WTVGRRELGCM, “inactive”. The result for VACHVR reads 0.975 ± 0.4; that for LMYKNCCWFLA, 8.256 ± 0.062; that for GDGFLSFSERSKKYSQSS, -0.855 ± 0.55. The value for GLYYASYNN was -1.63 ± 0.5; that for KWSYSPVGKHYLYMMWDGHS was 0.409 ± 0.3; that for LVMFKVTF was 6.432 ± 0.04.

KTCSDMWYAVRHSNHETSV returned an amyloid nucleation score of 1.34 ± 0.52. The value for TSGMNDITR was -0.093 ± 0.23. FGLMLRTS: the amyloid nucleation score is 0.062 ± 0.41. The result for TMFASHFCWYALYYVCILNF reads 0.066 ± 1. The value for FNLMSMIRNRH was -0.548 ± 0.79. The result for MNMFMCFNGHNKRIVVKSKL reads 0.446 ± 0.42; that for NKSGDSQLLRVYYIVLVFMW, -1.08 ± 0.62.

LVWPTYVGDQAGSCVPGVFP showed an amyloid nucleation score of 4.51 ± 0.068. The result for CAVEVM reads -0.724 ± 0.64.

Substance EFLYKLRLSLSMGCGHEELG had an amyloid nucleation score of 4.72 ± 0.061. The result for SSKLLYM reads -0.059 ± 0.55. With LILSSSSLVGVALRRVYCVT, the amyloid nucleation score was -0.809 ± 0.34. The result for IAAVDENCRVVCQIIFLSKV reads “inactive”. The result for SEGIADVLSVSCWCYPCRPY reads -1.21 ± 1.1. With VCDRFWFSLDLWLFIRTFRF, the amyloid nucleation score was -0.679 ± 1.1. The value for RNGLRTLEQRRSKSVWEMSW was 0.969 ± 0.16; that for HYSMHVNGDTAAGTYAQAFC was -0.472 ± 0.76; that for TICFIFHSFRLFRIDAY was 4.54 ± 0.098. The result for STMFSVNFST reads “inactive”; that for QCLQCGP, -0.553 ± 0.49. The result for TLHNYCYPMIRSCGQSPGRF reads 0.208 ± 1.1; that for CVKRRWPEVIRVHVGGYSFN, 0.455 ± 0.5; that for FVSEINVTSGD, 0.547 ± 0.42. Turning to ILWWNKAMGCFNELVLGRRV, the amyloid nucleation score was -0.016 ± 0.79. The result for VVPCWSVNKDSRSDRSD reads -0.1 ± 1; that for HPMQLLTSAQIKG, 0.863 ± 0.41. The result for LVGRRWVFTDCKGFRASVNF reads “inactive”; that for LYSRSTSILDERWSTVIILL, 2.5 ± 0.23; that for SKHFIVTVLTAITSNVSFSM, 2.38 ± 0.066.

In turn, TILGSLHFNFVKCHSKCSYF gave an amyloid nucleation score of 7.238 ± 0.061. For the substance NKLLHHFILGAEESLLEIMY, the amyloid nucleation score entry was “inactive”. The result for EYFTYVSAVWKSWCTYGGPA reads 0.529 ± 0.38; that for VFEAIMVYSFRRYFPPYGAF, 2.62 ± 0.098. The value for DVDSCW was 0.554 ± 0.43. The value for IKGVRQHLTTYKGTL was -0.408 ± 0.49. Consider NYEGGCGVNGVMSVPAVRNP, for which the amyloid nucleation score was determined as 0.082 ± 1. The value for GYNHFFTNDIISRGFPVSFK was “inactive”. The value for NILNFMDS was -0.603 ± 1.1; that for SHCGHRSATGVLSPLQTKGH was -0.159 ± 0.54; that for RSNFIQDSLSYFDILAIRRG was “inactive”. The result for LLPCLPLPFMSPITARATHI reads 3.24 ± 0.058; that for RISCSMVKRSYFRHVLVCEI, 1.74 ± 0.26; that for MNFCNHPLMDLMVSDLAWWM, 0.112 ± 0.37.

As for DSIARYCVTYLWCNLHLLVK, the amyloid nucleation score was found to be 4.01 ± 0.13.

Turning to GQFGVCITSPARQLSYD, the amyloid nucleation score entry was “inactive”.

As for DKDCVGIVLLFGQCVSITLA, the amyloid nucleation score result was “inactive”. As to FFWNAGCSELFGEGHYNSLL, the amyloid nucleation score entry was “inactive”. The value for AVDFKQDNHKYVNSLTDMGA was 0.034 ± 1.1. For TYPHVLTP, the amyloid nucleation score is -0.022 ± 0.37. The substance HNLLSRSAQPRGPLRPVRRH registered an amyloid nucleation score of 2.35 ± 0.16. The value for YIGVIT was 5.38 ± 0.1.

For the substance SWVLLAY, the amyloid nucleation score came to 0.45 ± 0.8.

Substance AIWYFFIRNYYPSLLQKRSL had an amyloid nucleation score of 1.89 ± 0.12. The value for LFDSLPDYITTYYNNDAQQG was -1.85 ± 1; that for FMNNMSWLKNFILTWIYKRR was “inactive”. The result for FFSVSNDHPSFFPANVGEVH reads 1.74 ± 0.25; that for ETESG, 0.72 ± 0.38.

Regarding CDAGFEIVLSLIN, the amyloid nucleation score was -0.828 ± 0.74. The value for FPWYCVGYVRSKRDRKVAWS was 0.04 ± 0.34; that for HEHLLPRT was 0.02 ± 0.74. The value for YANERNTDFNNRWFLHGIKR was -1.34 ± 1.1; that for LSCCSLIPTHPRPRDNVNEC was 0.717 ± 0.23; that for VSCVCHYVNNFNPMLCNRKC was -0.064 ± 0.8.

Turning to AMSPGTVKRFGLLVALFQY, the amyloid nucleation score worked out at 0.867 ± 0.74. The result for FCKFMSCESRPCNIMKCWGV reads 0.276 ± 0.6; that for HNGIMFTCYLSP, 5.944 ± 0.053; that for LDLGAPPWH, 1.03 ± 0.36. The value for DESSSRDETCGVFTHLVCVV was -0.249 ± 0.28; that for SLNYIFLNLCRYLSCGIYIH was “inactive”. Take FYRTSRASAGLS: the amyloid nucleation score was -0.237 ± 0.79.

Take LNRYYSLPRLSVPSSVRSCG: the amyloid nucleation score was -1.18 ± 0.44. As for GRLLFAWLYLCDYGGYIMRV, the amyloid nucleation score was -0.081 ± 1.1. The value for HNRYYGVIYVSLKICKLAFR was 6.476 ± 0.027; that for TYHIYFVCLKSLWRFGEDCL was 4.37 ± 0.055. The result for PGSNL reads -0.037 ± 0.42; that for LLPSGIIH, -0.815 ± 0.5; that for GCISSVQD, “inactive”.

Regarding TADLDIDGPVS, the amyloid nucleation score was 4.64 ± 0.094.

Consider LFMLYCFHLQDMKRVQICVH, for which the amyloid nucleation score is 0.188 ± 0.19.

In the case of HHKLLGWFDVEKGMPVRLWA, the amyloid nucleation score was 0.148 ± 0.43. For LLGQLKFLFLDVFLWLYVCS, the amyloid nucleation score turned out to be 1.56 ± 0.22. As to SYGFQVLDAKDVLMLAFVWA, the amyloid nucleation score came out at 0.255 ± 1.1. For SFLIFRDVSFAGEGL, the amyloid nucleation score was -1.21 ± 1.1. The value for KSVTVGADHNVDVGVAEMIR was 1.79 ± 0.32; that for PHNYLYSFFRRIYYRIGCLN was -0.461 ± 0.3. The result for NRMFLLVLFVEL reads 0.572 ± 0.27; that for TWKTSLS, “inactive”. The result for GVLRQEFYKSANNSMKQWLF reads “inactive”. Substance ILLQLSIKRSVASSWLHNGR registered an amyloid nucleation score of 3.61 ± 0.046. For the substance LGSRGSRSIAESFAGKIRI, the amyloid nucleation score is -0.226 ± 1.1. The result for DKANTRGGLRCYKMHQFAFV reads 1.15 ± 0.21; that for LCIPSVTTDS, “inactive”. The result for SRYFVVAGRSLNTCVNMCCV reads 4.78 ± 0.069; that for TSYRVRGVGSSELCGSLKLR, 0.627 ± 0.36; that for SMIIQTQHI, 0.024 ± 0.55. The result for VMRMWRVSMRF reads 6.068 ± 0.032; that for SLSRCALL, -0.789 ± 0.39.

For the substance LTDSKSALRLAMR, the amyloid nucleation score stood at 4.48 ± 0.039. The result for TYLMSFICNNLRVDIANINR reads 0.141 ± 0.3; that for LCRIDRVWQLGYRWLYQDVV, 4.34 ± 0.084; that for KKEVHLSRVYITETYVVGEG, -0.052 ± 0.63.

Take TAGFRILRRHFSIGVGSRTW: the amyloid nucleation score result is “inactive”. For the substance NHGWLYGWVVVNYTFTTGVM, the amyloid nucleation score was -1.63 ± 0.39. The value for LFIDLEMLFSPRN was 5.471 ± 0.048. The result for TSLVLCYLTIELSVLISSGN reads 0.221 ± 0.36; that for YSLNWVQWEWELVCKWQGSL, 0.143 ± 0.35; that for MIWLHIILMLMLVCRVLSE, 0.914 ± 0.46. As for KCPRVPNLVS, the amyloid nucleation score came to 0.407 ± 0.43.

For HLPGYSPIDCRKGLVLGRCT, the amyloid nucleation score was determined as 0.027 ± 0.54.

With GKESTTKH, the amyloid nucleation score was -0.494 ± 0.56. The value for LPFFKIMVRSSYCCNYQG was 2.29 ± 0.065; that for RLWYSSSVLLV was 0.709 ± 0.36; that for MNHWGMLRLGSWYRITYA was -0.367 ± 0.38.

The substance WCFFRVAFNW gave an amyloid nucleation score of 1.88 ± 0.17.

Take IVSLLLRQSQ: the amyloid nucleation score worked out at 4.41 ± 0.061.

In the case of LVISLSISCAGKRVAQSHMG, the amyloid nucleation score is -0.951 ± 0.76.

CVSDCD came in with an amyloid nucleation score of 3.45 ± 0.14. The value for ADDCLRTCSNKLKTQAGLW was 1.38 ± 0.35; that for SMDGSQDCTTKLNWSFHSVF was 3.88 ± 0.066. The value for KHSRMYLR was 1.49 ± 0.17; that for SPMNDLY was 0.041 ± 0.49. The result for VRKLSRNLMICYKTVLSGDC reads -0.105 ± 0.65; that for WHGPYYCGGCRTDIVCWNRA, 5.888 ± 0.05.
